The assay has as its target cleavage stimulation factor (CstF): CstF77-CstF50-CstF64(1-195) (human) (UniProt Q12996). Kind of assay: SEC.

Take “mammalian polyadenylation specificity factor (mPSF): CPSF160-WDR33(1-572)-CPSF30-Fip1(1-243), Q10570 1-1443; Q9C0J8 1-572; O95639-2 1-244; Q6UN15 1-243”: the stoichiometry N was 1.

Source of the values: paper PMC7036032.
